The test system of this test is transgenic rice plants. Put plainly: glyphosate resistance of the EPSPS mutant in transgenic rice plants sprayed with Roundup 41% ammonium glyphosate. The test is classed as in vivo, rice (Nipponbare). The text has this: A method for detecting the glyphosate resistance of G1 (SEQ ID NO: 4) provided in Example 1, G3 (SEQ ID NO: 8) provided in Example 2, G4 (SEQ ID NO: 10) provided in Example 3, the soybean EPSPS mutant G5 (SEQ ID NO: 12) provided in Example 4, T1 (SEQ ID NO: 16) provided in Example 5, T3 (SEQ ID NO: 20) provided in Example 6, T4 (SEQ ID NO: 22) provided in Example 7, T5 (SEQ ID NO: 24) provided in Example 8, the wheat EPSPS mutant T6 (SEQ ID NO: 26) provided in Example 9, R1 (SEQ ID NO: 30) provided in Example 10, R3 (SEQ ID NO: 34) provided in Example 11, R4 (SEQ ID NO: 36) provided in Example 12, R5 (SEQ ID NO: 38) provided in Example 13, and the rice EPSPS mutant R6 (SEQ ID NO: 40) provided in Example 14 in the transgenic rice is as follows:
The plasmids (containing the EPSPS mutation gene) of the monoclonal resistant bacteria of pADV5-EPSPS in Examples 1-7 were extracted by a conventional method, followed by double enzyme digestion by Pac1 and BstEII, the small fragments were collected, and then the small fragments were ligated by using T4 DNA ligase, to the pGVP1 vectors that had undergone the same double enzyme digestion, to obtain a pGVP1-EPSPS vector having a structure as shown in FIG. 23.
EHA105 (Agrobacterium tumefaciens) competent cells were transformed by the pGVP1-EPSPS vector, and single colonies were picked up to perform bacterial colony PCR detection to identify positive strains; then the positive strains were inoculated into 1 mL of YEP culture medium containing 50 μg·mL^−1 kanamycin and 50 μg·mL^−1 rifampin to propagate, and then preserved at −80° C., or used for subsequent experiment.
400 μl of bacterium containing the target gene vector preserved at −80° C. was added to a culture dish of solid culture media containing YEP+50 μg/mL rifampin+50 μg/mL kanamycin, and cultured in the dark at 28° C. for 24 hours, then this bacterium was added to an infection culture medium, and this bacterial solution was adjusted to OD=0.2 as an infection liquid.
Sterilization and pre-culturing: mature rice (Nipponbare) seeds were manually shelled, and full seeds without bacterial plaque were selected, and sterilized according to following steps: putting the seeds into a 50 ml sterile centrifuge tube, adding 70% alcohol for disinfection for 30 seconds, pouring out the alcohol, and cleaning the seeds once with sterile water; adding 10-20 ml of 2.6% sodium hypochlorite solution for soaking and sterilizing for 20 minutes, pouring out the sodium hypochlorite solution, and soaking and cleaning the seeds with sterile water for 6-7 times, 3 minutes each time.
Induction and subculturing: the seeds were put on sterile filter paper for drying, and mature embryos were put in an induction culture medium with 12 embryos in each dish; the culture dishes were sealed with a sealing film after the operation was finished, the mature embryos were cultured in the dark at 30° C. for 21-28 days, calluses were transferred into a fresh culture medium, and continuously cultured for about 7-14 days, and spherical calluses with a size of 1-2 mm were taken as infection receptors.
the calluses were inoculated into a centrifuge tube or a culture cup, the prepared Agrobacterium tumefaciens suspension liquid was added for infection for 10 minutes, wherein the calluses were shaken several times; the bacterial solution was poured out, the calluses were taken out, and placed on sterile filter paper to suck out the surface bacterial solution (about 30 minutes); and the calluses were put on sterile filter paper in a culture dish, and cultured in the dark at 25° C. for 2-3 days.
Recovery culturing: the calluses having undergone co-culturing were inoculated in a recovery culture medium, and cultured in the dark at 30° C. for 5-7 days. First round of screening: the calluses were transferred to screening culture media 1 (S1) and cultured in the dark at 30° C. for 14 days. […]

The mark [1] stands for this setting: 1× dosage 1060 g/hectare glyphosate sprayed, recorded on 10th day.
The mark [2] stands for this setting: 2× dosage 2120 g/hectare sprayed to plants surviving 1×, recorded 10 days later.
[3] abbreviates: 5× dosage 5300 g/hectare sprayed to plants surviving 2×, recorded 10 days later.
Where [4] appears, read: 20× dosage 21200 g/hectare sprayed to plants surviving 5×, recorded 10 days later.

Positions count from the first letter of the chain named.

Three molecules from patent US11584938B2, “Plant EPSPS mutant containing L195P and S247G mutations and encoding gene and use thereof” (GEVOTO LLC, priority 2017, dated 2023) can be followed below.

B1: G0: wild-type soybean EPSPS, amino acid sequence SEQ ID NO: 2; control (protein)
chain: MAAAEKPSTAPEIVLEPIKDISGTITLPGSKSLSNRILLLAALSEGTTVVDNLLYSEDIHYMLGALRTLGLRVEDDQTTKQAIVEGCGGLFPTIKESKDEINLFLGNAGTAMRPLTAAVVAAGGNASYVLDGVPRMRERPIGDLVAGLKQLGADVDCFLGTNCPPVRVNGKGGLPGGKVKLSGSVSSQYLTALLMAAPLALGDVEIEIVDKLISVPYVEMTLKLMERFGVSVEHSGDWDKFLVHGGQKYKSPGNAFVEGDASSASYFLAGAAVTGGTITVNGCGTSSLQGDVKFAEVLEKMGAKVTWSENSVTVTGPPQDSSGQKVLQGIDVNMNKMPDVAMTLAVVALFANGQTTIRDVASWRVKETERMIAICTELRKLGATVEEGPDYCVITPPEKLNVTAIDTYDDHRMAMAFSLAACGDVPVTIKDPGCTRKTFPDYFEVLERFTRH
modifications: Glycine max
notes: control
For the molecule B1, under setting [1], the “%++&+++ (percentage of plant having medium and high glyphosate resistance to the total number of plants observed)” value was found to be 0.0%; the “number of plants denoted by + (low glyphosate resistance)” value (“number … (low glyphosate resistance)” for short) was determined as 0; the “number of plants denoted by ++ (medium glyphosate resistance)” value (“number … (medium glyphosate resistance)” for short) is on record as 0; the “number of plants denoted by +++ (high glyphosate resistance)” value (“number of plants denoted by +++” for short) was 0. The “number of plants denoted by − (no glyphosate resistance)” value (from here on “number … (no glyphosate resistance)”) under setting [1] is listed as 36. Besides, the “glyphosate resistance / survival of the rice transformed by the EPSPS, in words” value (from here on “glyphosate resistance / survival”) (1× glyphosate dosage) was “had no resistance and died”. Under setting [2], the “%++&+++ (percentage of plant having medium and high glyphosate resistance to the total number of plants observed)” value was found to be 0.0%; the “number … (low glyphosate resistance)” value stood at 0; the “number … (medium glyphosate resistance)” value was 0; the “number of plants denoted by +++” value is on record as 0. Moreover, the “number … (no glyphosate resistance)” value under setting [2] turned out to be 36. Besides, under setting [3], the “&++&+++ (percentage of plant having medium and high glyphosate resistance to the total number of plants observed)” value is on record as 0.0%; the “number … (low glyphosate resistance)” value worked out at 0; the “number … (medium glyphosate resistance)” value stood at 0; the “number of plants denoted by +++” value is on record as 0. For the same molecule, the “number … (no glyphosate resistance)” value under setting [3] was found to be 36. Under setting [4], the “&++&+++ (percentage of plant having medium and high glyphosate resistance to the total number of plants observed)” value was found to be 0.0%; the “number … (low glyphosate resistance)” value was 0; the “number … (medium glyphosate resistance)” value amounted to 0; the “number of plants denoted by +++” value is 0. The “number … (no glyphosate resistance)” value under setting [4] was found to be 36.

B2: G1: soybean EPSPS mutant, SEQ ID NO: 4, mutation L212(195)P (protein)
chain: B1 chain with L212P
For the molecule B2, under setting [1], the “%++&+++ (percentage of plant having medium and high glyphosate resistance to the total number of plants observed)” value turned out to be 16.7%; the “number … (low glyphosate resistance)” value was found to be 20; the “number … (medium glyphosate resistance)” value is 4; the “number of plants denoted by +++” value was found to be 2. For the same molecule, the “number … (no glyphosate resistance)” value under setting [1] came to 10. Moreover, the “glyphosate resistance / survival” value (1× glyphosate dosage) is “obviously superior to that of the rice seedlings transformed by G0”. Under setting [2], the “%++&+++ (percentage of plant having medium and high glyphosate resistance to the total number of plants observed)” value is reported as 0.0%; the “number … (low glyphosate resistance)” value was 19; the “number … (medium glyphosate resistance)” value came to 0; the “number of plants denoted by +++” value was found to be 0. Under setting [2], the “number … (no glyphosate resistance)” value amounted to 17. Further, under setting [3], the “&++&+++ (percentage of plant having medium and high glyphosate resistance to the total number of plants observed)” value came to 0.0%; the “number … (low glyphosate resistance)” value is listed as 5; the “number … (medium glyphosate resistance)” value came to 0; the “number of plants denoted by +++” value worked out at 0. For the same molecule, under setting [3], the “number … (no glyphosate resistance)” value is 31. Besides, under setting [4], the “&++&+++ (percentage of plant having medium and high glyphosate resistance to the total number of plants observed)” value amounted to 0.0%; the “number … (low glyphosate resistance)” value came to 0; the “number … (medium glyphosate resistance)” value is reported as 0; the “number of plants denoted by +++” value was 0. The “number … (no glyphosate resistance)” value under setting [4] stood at 36.

B3: G2: soybean EPSPS mutant, SEQ ID NO: 6, merely containing the mutation P114(101)S; control (protein)
chain: B1 chain with P114S
Take B3: the “%++&+++ (percentage of plant having medium and high glyphosate resistance to the total number of plants observed)” value is, setting by setting: under setting [1], 47.1%; under setting [2], 0.0%. The “number … (low glyphosate resistance)” value under setting [1] stood at 6, the “number … (low glyphosate resistance)” value under setting [2] is 0, the “number … (low glyphosate resistance)” value under setting [3] stood at 0 and the “number … (low glyphosate resistance)” value under setting [4] is 0. Moreover, the “number … (medium glyphosate resistance)” value under setting [1] stood at 5, the “number … (medium glyphosate resistance)” value under setting [2] was determined as 0, the “number … (medium glyphosate resistance)” value under setting [3] was determined as 0 and the “number … (medium glyphosate resistance)” value under setting [4] was determined as 0. The “number of plants denoted by +++” value by setting is: under setting [1], 3; under setting [2], 0; under setting [3], 0; under setting [4], 0. The “number … (no glyphosate resistance)” value is recorded as 3 under setting [1], 17 under setting [2], 17 under setting [3] and 17 under setting [4]. Moreover, the “glyphosate resistance / survival” value by setting is: (1× glyphosate dosage) “had certain resistance to glyphosate”; (2× glyphosate dosage) “all rice seedlings containing the soybean EPSPS mutant G2 died”; (5× glyphosate dosage) “all rice seedlings containing the soybean EPSPS mutant G2 died”; (20× glyphosate dosage) “all rice seedlings containing the soybean EPSPS mutant G2 died”. Also, the “&++&+++ (percentage of plant having medium and high glyphosate resistance to the total number of plants observed)” value by setting is: under setting [3], 0.0%; under setting [4], 0.0%.
